From patent US20210380703A1 (RIGEL PHARMACEUTICALS, published 2021)
Substitutions are numbered along the chain they refer to.

B1: 370_D03 (antibody, V domains shown)
VH: EVQLLESGGGLVQPGGSLRLSCAASGFTFSSYSMNWVRQAPGKGLEWVASINYNGGYTSYADSVKGRFTISRDNSKNTLYLQMNSLRAEDTAVYYCARGATWHDTHLDYWGQGTLVTVSS
VL: DIQMTQSPSSLSASVGDRVTITCRASQSIITYLNWYQQKPGKAPKLLIYAATSRASGVPSRFSGSGSGTDFTLTISSLQPEDFATYYCQQSYDLPLTFGGGTKVEIK
notes: VH/VL only
B2: 370_F02 (antibody, V domains shown)
VH: B1 VH with S30D, S33G, S50N, S59G
VL: B1 VL with I30L, T31S, A51V, A55H, L94S
notes: VH/VL only
B3: 370_F12 (antibody, V domains shown)
VH: B1 VH with S31D, S50N, S59G
VL: B1 VL with I30L, T31S, T52S, R54L, A55Q, L94S
notes: VH/VL only
B4: 373_D06 (antibody, V domains shown)
VH: B1 VH with S50G
VL: B1 VL with I30V, L94T
notes: VH/VL only
B5: 371_F03 (antibody, V domains shown)
VH: B1 VH with A49S, S50G
VL: B1 VL with R54L, A55H, L94N
notes: VH/VL only
B6: 374_D04 (antibody, V domains shown)
VH: B1 VH with S50G
VL: B1 VL with I30L, T31S, L47V, A55H, L94T
notes: VH/VL only
B7: 372_F02 (antibody, V domains shown)
VH: B1 VH with S33G, N35H
VL: B1 VL with I30L, L47V, A55H
notes: VH/VL only
B8: 374_G05 (antibody, V domains shown)
VH: B1 VH with A49S, S50N, G55S, T58K, S59G
VL: B1 VL with T31S
notes: VH/VL only
B9: 370_E05 (antibody, V domains shown)
VH: B1 VH with S33G, A49S, S50N, T58K, S59G
VL: B1 VL with I30S, L47V, A51V, D93N, L94S
notes: VH/VL only
B10: 370_F01 (antibody, V domains shown)
VH: B1 VH with S33G, A49S, S50N
VL: B1 VL with I30V, T31S, L94S
notes: VH/VL only
B11: 371_C07 (antibody, V domains shown)
VH: B1 VH with S30D, S33G, A49S, S50N, S59G, H106A
VL: B1 VL with I30L, T31S, R54L, L94T
notes: VH/VL only
B12: 370_H06 (antibody, V domains shown)
VH: B1 VH with S30D, S31D, S50N, S59G
VL: B1 VL with I30L, D93E, L94T
notes: VH/VL only
B13: 373_A06 (antibody, V domains shown)
VH: B1 VH with A49S, S50G, T58K
VL: not shown
notes: VH/VL only
B14: 371_E12 (antibody, V domains shown)
VH: B1 VH with S30D, A49S, S50G, G55S, T58K
VL: B1 VL with I30L, T31S, R54L, L94T
notes: VH/VL only
B15: 370_H04 (antibody, V domains shown)
VH: B1 VH with A49S, S50N, S59G
VL: B1 VL with I30L, T31S, L33V
notes: VH/VL only
B16: 371_E08 (antibody, V domains shown)
VH: B1 VH with A49S, S50N, G55S, T58K
VL: B1 VL with I30V, T31S, L33V, L47V, A55H
notes: VH/VL only
B17: 372_B09 (antibody, V domains shown)
VH: B1 VH with A49S, G55S
VL: B1 VL with I30L, D93E, L94T
notes: VH/VL only
B18: 371_E05 (antibody, V domains shown)
VH: B1 VH with S50G
VL: B1 VL with T31S, L47V, D93S, L94S
notes: VH/VL only
B19: 370_E04 (antibody, V domains shown)
VH: B1 VH with S50N, T58K, S59G
VL: B1 VL with I30L, A51V, R54L, A55H, D93E, L94T
notes: VH/VL only
B20: 371_F09 (antibody, V domains shown)
VH: B1 VH with S50G
VL: B1 VL with I30L, L94N
notes: VH/VL only
B21: 370_G08 (antibody, V domains shown)
VH: B1 VH with S31D, S50G, S59G
VL: B1 VL with I30L, L47V, D93E, L94S
notes: VH/VL only
B22: 371_G01 (antibody, V domains shown)
VH: B1 VH with S31D, A49S, S50N
VL: B1 VL with I30L, R54L
notes: VH/VL only
B23: 374_A04 (antibody, V domains shown)
VH: B1 VH with S50G
VL: B1 VL with I30L, L47V, L94T
notes: VH/VL only
B24: 374_C10 (antibody, V domains shown)
VH: B1 VH with A49S, T58K, S59G
VL: B1 VL with I30V, R54L, D93N, L94T
notes: VH/VL only
B25: 371_C06 (antibody, V domains shown)
VH: B1 VH with A49S
VL: B1 VL with I30S, T31S, A51V
notes: VH/VL only
B26: 373_F07 (antibody, V domains shown)
VH: B1 VH with A49S, S50G, G55S, T58K
VL: B1 VL with I30L, T31S, R54L, D93E, L94T
notes: VH/VL only
B27: 371_E09 (antibody, V domains shown)
VH: B1 VH with S31D, A49S, S50G, G55S
VL: B1 VL with I30L, D93N, L94S
notes: VH/VL only
B28: 374_D09 (antibody, V domains shown)
VH: B1 VH with S30D, S33G, S50N, T58K, S59G
VL: B1 VL with T31S, L33V, R54L, L94T
notes: VH/VL only
B29: 370_D09 (antibody, V domains shown)
VH: B1 VH with S31D, A49S, S50G, G55S
VL: B1 VL with I30V, L47V, L94T
notes: VH/VL only
B30: 373_G02 (antibody, V domains shown)
VH: B1 VH with A49S, S50G
VL: B1 VL with D93S, L94S
notes: VH/VL only
B31: 373_B09 (antibody, V domains shown)
VH: B1 VH with S30D, A49S, S50G, T58K
VL: B1 VL with I30L, T31S, L47V, R54L, D93E, L94T
notes: VH/VL only
B32: 374_A05 (antibody, V domains shown)
VH: B1 VH with S31D, S33G, S50N, T58K, S59G
VL: B1 VL with I30V, T31R, L47V, R54L, D93E
notes: VH/VL only
B33: 372_E08 (antibody, V domains shown)
VH: B1 VH with S31D, A49S, S50N
VL: B1 VL with D93N
notes: VH/VL only
B34: 372_H11 (antibody, V domains shown)
VH: B1 VH with S33G, N35H, S50G
VL: B1 VL with I30L, T31S, L33V, D93E, L94N
notes: VH/VL only
B35: 371_B01 (antibody, V domains shown)
VH: B1 VH with S30D, A49S, S50N, G55S, S59G
VL: B1 VL with I30L, T31S, L33V, R54L
notes: VH/VL only
B36: 371_H11 (antibody, V domains shown)
VH: B1 VH with A49S, S50G, T58K, S59G
VL: B1 VL with I30L, A51T, A55H, D93E, L94S
notes: VH/VL only

Key:
Mouse ACVR2A = Mouse ACVR2A (mouse, UniProt P27038 20-135, limits assumed); experiment: ELISA
Summary of the method: (§1)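 Monoclonal antibodies were first applied to human or mouse ACVR2A, alongside biotinylated goat anti-human kappa light chain (positive control) and human Fc (negative control); binding was then determined by ELISA.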

Human ACVR2A = biological target: T1, Human ACVR2A (human, UniProt P27037 20-135, limits assumed); experiment: ELISA
T1 construct: also called activin receptor, type II A
Summary of the method: as §1

Goat anti-Human Kappa = biological target: T2, Goat anti-Human Kappa; experiment: ELISA; positive control
T2 construct: Positive control; also called biotinylated goat anti-human kappa light chain
Summary of the method: as §1
Further: test concentration or dose not given here.

T1 sequence (P27037 20-135 limits assumed): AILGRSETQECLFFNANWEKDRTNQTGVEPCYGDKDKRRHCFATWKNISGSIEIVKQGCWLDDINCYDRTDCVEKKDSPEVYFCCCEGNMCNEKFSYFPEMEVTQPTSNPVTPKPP
Sequence of Mouse ACVR2A (P27038 20-135 limits assumed): as the sequence (P27037 20-135 limits assumed) above, with K20R, V73I counted along it

| Binder | optical density (Mouse ACVR2A) [OD] | optical density (Human ACVR2A) [OD] | optical density (Goat anti-Human Kappa) [OD] |
| --- | --- | --- | --- |
| B1 | 3.25 | 3.13 | 3.58 |
| B2 | 2.89 | 2.68 | 3.63 |
| B3 | 3.57 | 3.55 | 3.64 |
| B4 | 3.57 | 3.63 | 3.21 |
| B5 | 1.3 | 1.19 | 1.82 |
| B6 | 3.65 | 3.63 | 3.05 |
| B7 | 3.09 | 3.01 | 3.69 |
| B8 | 3.67 | 3.66 | 3 |
| B9 | 2.77 | 2.58 | 3.52 |
| B10 | 3.14 | 3 | 3.67 |
| B11 | 1.45 | 1.39 | 3.36 |
| B12 | 3.39 | 3.22 | 3.51 |
| B13 | 3.62 | 3.64 | 3.07 |
| B14 | 2.99 | 3.09 | 3.62 |
| B15 | 3.56 | 3.48 | 3.62 |
| B16 | 2.27 | 2.11 | 2.64 |
| B17 | 3.01 | 3.11 | 3.5 |
| B18 | 3.18 | 2.99 | 3.45 |

| Binder | optical density (Mouse ACVR2A) [OD] | optical density (Human ACVR2A) [OD] | optical density (Goat anti-Human Kappa) [OD] |
| --- | --- | --- | --- |
| B19 | 2.72 | 2.57 | 3.4 |
| B20 | 3.57 | 3.37 | 3.6 |
| B21 | 3.33 | 3.21 | 3.56 |
| B22 | 2.24 | 2.01 | 1.79 |
| B23 | 3.68 | 3.65 | 2.99 |
| B24 | 3.67 | 3.57 | 3.08 |
| B25 | 3.01 | 2.49 | 3.44 |
| B26 | 3.62 | 3.61 | 3.13 |
| B27 | 2.28 | 2.08 | 3.15 |
| B28 | 3.65 | 3.61 | 3.1 |
| B29 | 2.53 | 2.92 | 3.48 |
| B30 | 3.56 | 3.59 | 3.22 |
| B31 | 3.62 | 3.6 | 3.24 |
| B32 | 3.6 | 3.6 | 2.92 |
| B33 | 2.82 | 2.56 | 3.51 |
| B34 | 2.86 | 2.62 | 3.65 |
| B35 | 3.27 | 3.26 | 3.58 |
| B36 | 3.12 | 2.89 | 3.6 |
